Experimental data published in patent US20070117770A1, “Human ribosomal DNA (rDNA) and ribosomal RNA (rRNA) nucleic acids and uses thereof” (Cylene Pharmaceuticals, Inc., priority 2005, published 2007).

Assays:
nucleolin [1] = molecular target: T1, nucleolin (Homo sapiens, UniProt P19338); experiment: Filter-binding assay of 32P-labeled quadruplexes and Nucleolin; conditions: for Kd: 0.2 nM 32P-labeled quadruplex, read-out: Kd, apparent dissociation constant of nucleolin protein and the nucleic acid ligand
T1 construct: without the N-terminal acidic stretches domain
T1 sequence (P19338 284-710 limits assumed): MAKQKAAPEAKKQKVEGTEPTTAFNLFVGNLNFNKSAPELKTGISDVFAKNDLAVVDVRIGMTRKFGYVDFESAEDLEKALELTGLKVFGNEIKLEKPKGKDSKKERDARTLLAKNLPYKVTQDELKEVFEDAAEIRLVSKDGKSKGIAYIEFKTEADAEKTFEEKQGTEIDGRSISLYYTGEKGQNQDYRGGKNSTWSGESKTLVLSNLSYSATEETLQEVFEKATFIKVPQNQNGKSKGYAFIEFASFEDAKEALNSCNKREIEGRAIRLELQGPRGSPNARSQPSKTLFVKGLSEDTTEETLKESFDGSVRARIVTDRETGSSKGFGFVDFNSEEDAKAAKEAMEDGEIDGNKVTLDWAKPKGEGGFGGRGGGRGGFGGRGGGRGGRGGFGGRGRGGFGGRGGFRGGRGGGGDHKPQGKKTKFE
Protocol: The assay also was conducted in a filter-binding format. […] The protein-quadruplex mixtures were incubated for 30 min at ambient temperature and filtered through mixed cellulose ester membrane filters (Millipore) with gentle suction. The filters were washed twice with […] of binding buffer, dried and OptiPhase ‘SuperMix’ scintillation cocktail (Perkin Elmer) was added to the wells. Radioactivity was assayed with MicroBeta scintillation counter (Perkin Elmer). Binding curves were constructed and apparent Kd's and Bmax's for the complexes were calculated using the GraphPad Prizm software program (GraphPad Software). In the following table, the nucleic acid ligand is designated in the first column using the nomenclature described herein; the second column provides the nucleotide sequence of the nucleic acid ligand; the third column is the conformation of the ligand as determined by circular dichroism (M is mixed, P is parallel, A is antiparallel, C is complex, SS is single-stranded and ND is not determined); the fourth column is the dissociation constant determined by the filter binding assay of nucleolin protein and the nucleic acid ligand; the fifth column is a Bmax constant determined by the filter binding assay, which is the percent of active nucleic acid ligand in each assay; and the sixth column presents the concentration of Compound A-1 required to dissociate half of the complexed nucleic acid ligand and nucleolin protein, as determined by the EMSA assay described above.

nucleolin [2] = molecular target: T1, nucleolin; experiment: EMSA, relative affinity of nucleic acid ligands for nucleolin; type: binding; parameters: key: +: weakest nucleolin affinity; ++++: strongest nucleolin affinity
Protocol: The following assays assessed effects of compounds on interactions between nucleolin and nucleic acid ligands capable of forming quadruplex (QP) and hairpin (HP) secondary structures. Nucleic acid ligands tested were a cMyc QP DNA having nucleotide sequence 5′-[…]-3′ (SEQ ID NO: 176) and a HP pre-rRNA region to which nucleolin binds, having the sequence 5′-[…]-3′ (SEQ ID NO: 177). In the assays, recombinant nucleolin (˜250 nM), which was fused to maltose binding protein and had the sequence under accession number NM_005381 without the N-terminal acidic stretches domain, was incubated with each of the two ^32P-labeled nucleic acid ligands (10 or 250 nM). Nucleolin and the nucleic acid ligand were incubated in the presence or absence of a test compound of Formula A-1, B-1, C-6 or C-7 in an incubation buffer (12.5 mM Tris, pH 7.6, 60 mM KCl, 1 mM MgCl2, 0.1 mM EDTA, 1 mM DTT, 5% glycerol, 0.1 mg/ml BSA) for 30 minutes at room temperature. Structures for A-1 and B-1 are shown above and structures for C-6 and C-7 are shown hereafter: [drawing 17] The resulting complexes were separated on a 6% DNA retardation gel using 0.5× TBE with 20 mM KCl as a running buffer (i.e., electrophoresis mobility shift assay (EMSA)).
The assay also was conducted using nucleic acid ligands derived from human ribosomal DNA. Sequences of these nucleic acids are shown in the preceding example. […]

B1: CGGAGGGCGCGCGGGTCGGGGCGGCGGCGGCGGCGGCGGTGGCGGCGGCGGCGGGGGCGGCGGG (nucleic acid, listed as Homo sapiens)
chain: CGGAGGGCGCGCGGGTCGGGGCGGCGGCGGCGGCGGCGGTGGCGGCGGCGGCGGGGGCGGCGGG
modifications: listed as DNA, chemistry not given here
Nucleolin [1]
  Bmax, percent of active nucleic acid ligand: 100%
  Kd: 0.3 nM
Nucleolin [2]
  Affinity for Nucleolin (relative): ++++

B2: AGGGCGGCGGGCGGGGAAGAGGGCACAGACGGGCGAGGGCCGGGGACCGCGAGGGCAAGGGCACCCGGG (nucleic acid, listed as Homo sapiens)
chain: AGGGCGGCGGGCGGGGAAGAGGGCACAGACGGGCGAGGGCCGGGGACCGCGAGGGCAAGGGCACCCGGG
modifications: DNA, backbone and methylation of C not given here
Nucleolin [1]
  Bmax, percent of active nucleic acid ligand: 55%
  Kd: 0.7 nM
